Measurements reported in paper PMC7347944 (Communications Biology, 2020).

Each binder was assayed against T1, amyloid-β oligomers (UniProt P05067 672-713) (assay: co-sedimentation). Conditions: both partners purified.
T1 construct: also called AβO; Aβ oligomers

Binder | binding result
full-length huPrP(23−230) (natural protein) not shown | binds
huPrP(23−144) (domain or fragment) KKRPKPGGWNTGGSRYPGQGSPGGNRYPPQGGGGWGQPHGGGWGQPHGGGWGQPHGGGWGQPHGGGWGQGGGTHSQWNKPSKPKTNMKHMAGAAAAGAVVGGLGGYMLGSAMSRPIIHFGSD | binds
huPrP(23−111) (domain or fragment) KKRPKPGGWNTGGSRYPGQGSPGGNRYPPQGGGGWGQPHGGGWGQPHGGGWGQPHGGGWGQPHGGGWGQGGGTHSQWNKPSKPKTNMKH | binds
